This series concerns the molecule itself. The series can be described thus: crystal structure.

Consider 2 proteins from PMC3169398, “Structures of phosphopantetheine adenylyltransferase from Burkholderia pseudomallei” (Acta Crystallographica Section F: Structural Biology and …, 2011).

B1: Phosphopantetheine adenylyltransferase from B. pseudomallei strain 1710b, tag removed (GPGS-ORF) (enzyme)
chain: MVVAVYPGTFDPLTRGHEDLVRRASSIFDTLVVGVADSRAKKPFFSLEERLKIANEVLGHYPNVKVMGFTGLLKDFVRANDARVIVRGLRAVSDFEYEFQMAGMNRYLLPDVETMFMTPSDQYQFISGTIVREIAQLGGDVSKFVFPSVEKWLTEKVAAMAQGPSA
notes: also called Bp PPAT; PPAT
Consider B1, for which the stoichiometry N (commonly the number of molecules, sites or subunits per partner or assembly) was found to be 6.

B2: Phosphopantetheine adenylyltransferase from B. pseudomallei strain 1710b, with the full-length expression tag (…-ORF) (enzyme)
chain: MVVAVYPGTFDPLTRGHEDLVRRASSIFDTLVVGVADSRAKKPFFSLEERLKIANEVLGHYPNVKVMGFTGLLKDFVRANDARVIVRGLRAVSDFEYEFQMAGMNRYLLPDVETMFMTPSDQYQFISGTIVREIAQLGGDVSKFVFPSVEKWLTEKVAAMAQGPSA
notes: also called Bp PPAT; PPAT
With B2, the “stoichiometry N” value amounted to 6.
